We go through 23 sequences from the DeepSol protein solubility set.

The nature of this series: soluble on expression in E. coli; label from the status in PepcDB or PDB records.
“MNEADYLRLLTRQAEQANDFLSNARKWDRERWVCQRFLEALNVPYRQEDFAAPGEQPPDVLFKGAGFEVFFVLDEGRRLNEEWREELTRRRQAVSLRQLIRREERPQRIAAAELQARLAPTLRKKAHNYSERGIDHGELDLLAFVNLKRAVPDFNTPFPPPTEYLRQGWRSLSMVGPTFARVLFAHSGAPEFLRANLGRSILFDAGVGL”: the “soluble on expression in E. coli” value is “soluble”.
To “MNEALSSGKVKNGEFLTVYLKEKLPDRLHYSQSYRIPPIIGMVGEGLIVRQNRTNAQECYGDHGYDNKFFSMRTIFVGHGSRFRRGKKVPSFENVQIYSVVADILGLRPAPNNGSSLFPRSILLPFRATRGLE” belongs “not soluble”.
On to “MNEDIDMLIIANDLKQRGRKSIISGKFIFINMANEYEYVVYPVNENKTLSVKELEEFVDFSNRIKKKGVIAIVDKYGDVTYYLLSEINLGKK”, for which the “soluble on expression in E. coli” value is reported as “soluble”.
Next, “MNEIHQPLARRVWRSNVDEEMARMAECLKRFPLIAFDTEYPGIIFRTYFDSSSDECYRAMKGNVENTKLIQCGFTLFNAKGEIGGVWEINFSNFGDPSDTRNELSIEFLRRHGLDLQKIRDEGVDMFGYGFFPKLMTVFRSQKHVEFVTFQGAYDFAYFLSILNHGKLPETHGEFATEVVKVFGQVYDTKVMAGFCEGLGEHLGLSKLAQLLQITRVGRAHHAGSDSLMTALVFIKLKHVYEDSRFARGLIYGIGKSNLVAAPAPAPVPEPTLPLMCQQNVASYPVFHNGYVQNYEQPQLVSYDPSGAPWAFCNATGTYVQLTHLPASTFAYPSQTPSATVDYLGPVPNYYNNNACYVVE”: “soluble”; “MNEISVVLPAYNEEENIQKLVKRWQQLCKDLKYKYELSLNIFVIDDGSKDKTEVIGRELERKYDNFYLIKHDKNKGLGEAINTGIKYVMEKRSDSKYVCIMDCDNTQDPRYVFSMIEKMEKTDVVIASRYQKGSCVKGVPFFRLTASYGARFVYTIFLGVKNVRDYTCGYRLYRTSALKTAFKVFGESFIEESGFTCMVELLYKLNICGAVFKEVPFTLRYDFKGGVSKMKVLITAINSVKLTLRLKKIRKGVEPVLEDLEHHHHHH”: “not soluble”.
Next, “MNEKNIKHSQNFITSKHNIDKIMTNIRLNEHDNIFEIGSGKGHFTLELVQRCNFVTAIEIDHKLCKTTENKLVDHDNFQVLNKDILQFKFPKNQSYKIFGNIPYNISTDIIRKIVFDSIADEIYLIVEYGFAKRLLNTKRSLALFLMAEVDISILSMVPREYFHPKPKVNSSLIRLNRKKSRISHKDKQKYNYFVMKWVNKEYKKIFTKNQFNNSLKHAGIDDLNNISFEQFLSLFNSYKLFNK”: “soluble”; “MNENWNWSLVDKVVYINLKERTDRNEHIKKELEKVCFPPEKIIRFEAIRAGSGFIGCAKSHLAVLKMAQENNWRNILILEDDMVFEDDDETIIRTNNFLSKLNNIHWDAAFLSASYYIVNAIDDNFFKVNFAYLANSYLVNNHYYEKLINNYTESVQRLTNGESSSEYGLDSNWLKIMKIDNWYGIYPVIGYQRTDISDIEYKEIDRTHQFTRTFDKMKAYGSK”: “soluble”; “MNEQAILQSAEAWVKKQLMDEYSGHDWYHIRRVTLMAKAIGEQEKVDVFVVQIAALFHDLIDDKLVDDPETAKQQLIDWMEAAGVPSQKIDHTMDIINTISFKGGHGQSLATREAMVVQDADRLDALGAIGIARTFAYSGNKGQPIYDPELPIRETMTVEEYRHGKSTAINHFYEKLFKLKDLMNTETGKQLAKERHVFMEQFIERFLSEWNGDMLEHHHHHH”: “soluble”.
With “MNERLIFNPKQLTSARIARGLTMKELAEKAELSRQMISNYESGKTIPKADSILKLISVLQFPRSFFSADTFELYSGATFFRSRSAATKKVRDMQKERLKYVQEVYKVLATYVNFPKVCLPELIEKSIYEITEEEIVKKAEELRKIWGLDLISPVPNLIQLAEQNGVIISEANMSNPTLDAVSRWMIGRPFIMLTDNHESAVRRRFNVAHELGHILLHNGVESIHEYSQTELKNIIEYQANLFAAHFLLPSAAFSDSLLSISLEYYIDLKKYWKVSLQSMIQKIYTLALINDDQRLYLNKRIAKNKWKTKEPYDEQLTIEQPEVFQKVYHMILEHQVIPASQLNQAFKLPKEEIEKILGTAIQTEQDKTEIVLELLRSNK”, the “soluble on expression in E. coli” value is reported as “not soluble”.
Regarding “MNFVQPIRDPEQIQQLKDYFKEKSLRNYILFIMGINTGLRISDILKLKVGDVKGSHISMREEKTGKQKRIQITAALKRELKWFIEEREDNEYLLQSRQGRNRPIGRSMAYKILSGAAADFGLDEIGTHTLRKTYGYHMYMQTKNIALLMEIFNHSSEKVTLRYIGVNQDAMDKAMTRFKI”, the “soluble on expression in E. coli” value was “not soluble”.
To “MNGCKQSASKVFKLVGGFNKASSRCFSSEKLIPKDLKIVKNPTSEQIKQFQKLVGDFNDIKLLKETMKDNYQLYLLCHKDSTVLSGTQSITYKSLNRSIPDFQTFGLSYQPDNTYNLLPHLMHEMATDFKSVKMNSGGCVDSKYAAVWRKVLHTKVRGPTYYVSHYKPDEVFNPELEFDDVVVKKFSDVPVEHVVKYDNSIFPYERKEYILAKFKNGVGRVAYNKSGEVIGIGLVSTESSGNCEIGPIYCDNKNAAQAIFQSIIQDLPMKDLKDVLVRCSDKFEDSATWIRPFLRRSHEMTPFAHIKFNRVIPDGLNFSKVFVSSNPSNAPC” belongs “not soluble”; to “MNGEVMDELIQKLERVSQTSFIGSGKLMELSELVEMHEADVVIFNSELSATQVRNISKIVDARIIDLEHHHHHH”, “not soluble”; to “MNGKQRMVEQSKQWLSEALIELMKTKDYQDISITEIAQKAELSRKTFYHSFKNKEAVINYLCDQLFDQYFQKLVKQEPQIGEAMLNTTFDIFLNFWWQQRSIIRLLIQQGLFDHMNEIWQKKAVPRYNQFAAPWHVKGTPKQVAYVMAFQLGGFTNILRLWLGQDSPEAPEKIKDLMLLAARQLADSLNPQKN”, “not soluble”.
As for “MNHHLLSQAHLDKEKLVILVKEDEKMNSMHKDKPFFPLLIDYMSSGPVVAMLWEGCDVVKRARVILGEELEVGEFRSIFYDLVVRDTHKGCHCSDSVASANREYVLWFEEFKEGTRFD”, the “soluble on expression in E. coli” value is “not soluble”.
Next, “MNHPNAPFQPPMDIDAVWQHSLIRVTDAFALPPIVLRVDDAIIGTLGNFSVSTGKAKAKKTFNVCALVAAALVNGQVLEYQASFPESKRNILYFDTEQSPYHCQLVLQRILALAELPLDQQPEHLLFSHLRSIASPEERRAIIRYAIYHTPNVGLVVIDGIRDLMHDINNSAEATNLMGDLMQWTGERNIHIQTVLHLNKGDDNARGHIGTELNNKTESVLLITKDNSDADRSVVSASIIRSKPFPPFAFRLTEVDNICLRELDTDFTAKDAQPFSYQELSGEEHRTALREAFGQACELGYGDLLKRLSSSYLGVSGRPYGQTKLKELLRFLVNKRMLVKASRGRYQFNPDFHY”: “not soluble”; “MNIGIIGTGNMGNILIDAFLETRAVKPSCLTIINRTPAKAYHIKEKYPSVHIAKTIPEVIEQSQLIFICVKPIDIYPILKKYAEHFSDETCLVSITSPISPSQLETLVPCHVARIIPSITNRALSGASLFTFGDNCSEEWQQKLLRLFKNISTPLVIEEDITRVSSDIASCGPAFFSYLLQCFINAAVDKTNITHEEATTLVSEMVVGMGKLLEKEIFTLPTLQEKVCVKGGVTGEGIRVLEEHVGDMFHKLIERTHEKFDEDLECVDQQFNKHT”: “not soluble”; “MNIKKHLPWLGALLPIINAQADTNPNVVIIYIDDMGIGDIGCYGGKFVATPNIDKLAQDGLLFNQYYSSAPVSSPSRCGLTTGLFPIEVGINTFLNDKASNKRCEQRNYLDDKLPSMARAFQNAGYATGHIGKWHMGGGRDVHNAPSIKNYGFDEYLSTYESPDPDPAITASKWIWCDNDSIKRWKRTEYFVDKSIDFIKRHKDSPFFLNLWPDDMHTPWVPEFKQKERKSWETKEAFSPVLGEMDKQIGRFIKALDDMGLSENTIIIFTSDNGPAPSFKAVRSAYLRGTKNSLYEGGIRMPFIVKYPKKIKPGRVNNSSVLCAVDLYPTLCSVAGIKTEKNYKGDGQNYAKVLLGKSEAKRKTDLMWDFGRNKHFGFPGNPYDRSPHLAIRSGKWKLLVNGDGSDAQLYDMELDKFEKNNIAGEHPELVAKLSKKVCEWYAQNKDKGLQTDLLEHHHHHH”: “soluble”.
Next, “MNILYDERLDGPLPQVDKDGLLAELRLRLPDLELLHAAEDLRPYECDGLSAYRCTPLLVALPERIEQVQGLLALCHRLKVPVVARGAGTGLSGGALPLENGVLLVMARFRRILEIDPLGRFARVQPGVRNLAISQAAAPHGLYYAPDPSSQIACSIGGNVAENAGGVHCLKYGLTVHNLLQVDIVTLEGERLSLGSSALDSAGFDLLALFTGSEGLLGVVVEVTVRLLPRPPVAKVLLASFDDVESAGRAVADLIGAGIVPAGLEMMDNLSIRAAEDFIHAGYPVDAAAILLCELDGVEADVHEDCERVRELFEAAGATSVRQAQDEAERQRFWAGRKNAFPAVGRISPDYYCMDGSIPRRELPRVLHGIAELSREYGLRVANVFHAGDGNMHPLILFDANLAGELERAEALGGRILELCVAVGGSITGEHGVGREKINQMCAQFNADELTLFHAVKAAFDPAGLLNPGKNVPTLHRCAEFGAMHVHHGRLPFPELERF”: “not soluble”.
To “MNIVNKDSKNTFTRMCIGEAIIKLLKDTDFDKIRITSVAKCAGVSRITFYKYYESIHDALCDYLNIIIIEYLEECANNPENGSFLDYSHILFALEFFNRYKDYFLTLSRCGLHSILINSINNFMSEHFTNPKNYSEYRLYCYSGGLLNTFLKWEENGCDCDAGEIARTLEELYS” belongs “not soluble”; to “MNIVPILLIRFYQSFISPLLGPSCKYHPTCSNYAIEAFRQHNFFYASWLTVWRVLRCNPFSKGGYDPVPPKSVKSAGNSKDSKLEHHHHHH”, “not soluble”.
Turning to “MNKAQIEIYYCRQCNWMLRSAWLSQELLHTFSEEIEYVALHPDTGGRFEIFCNGVQIWERKQEGGFPEAKVLKQRVRDLIDPERDLGHVDRPSSTQSLEHHHHHH”, the “soluble on expression in E. coli” value is listed as “soluble”.
Next, “MNKEERAKRQSKIRNFSIIAHIDHGKSTLADRILEKTNALTQREMKAQLLDSMDLERERGITIKLNAIQLNYKAKDGEEYILHLIDTPGHVDFTYEVSRSLAACEGAILVVDAAQGIEAQTLANVYLALDNNLEILPVINKIDLPSADPERVRQEVEDVIGLDASEAVLASAKAGIGIEEILEQIVEKVPAPTGDSEEPLQCMIFDSLYDPYRGVIAYIRVVNGTVKVGDKVRMMATGKEFEVTEVGVFTPKTTQRDELTVGDVGFLAASIKNVGDTRVGDTITHAKRPAAEPLAGYRKLNPMVFCGLYPIDSARYNDLRDALEKLELNDSALEFEPETSQALGFGFRCGFLGLLHMEILQERIEREFKIDLITTAPSVIYKVFLTNGEDMIVDNPSNMPDPQTIDRVEEPFVKAAIMVPNDYVGAVMEICQGKRGTFIDMQYLDETRVTLTYEIPLSEIVYDFFDQLKSNTKGYASFDYELIGYKPSKLVKMDILLNSEQVDALSFIVHRDSAYDRGKVIVEKLKELIPRQQFEVPIQATIGNKVVARSTIKAMRKNVLAKCYGGDISRKRKLLDKQKEGKKRMKSVGSVEVPQEAFMAVLKMDDN”: “soluble”.
Next, “MNKFVKSLLVAGSVAALAACSSSNNDAAGNGAAQTFGGYSVADLQQRYNTVYFGFDKYDITGEYVQILDAHAAYLNATPAAKVLVEGNTDERGTPEYNIALGQRRADAVKGYLAGKGVDAGKLGTVSYGEEKPAVLGHDEAAYSKNRRAVLAY”: “soluble”.
